Patent US20250170238A1 (LANIER BIOTHERAPEUTICS, published 2025)

T1: mouse IL-25 (made from mouse (NSO) source) (mouse, UniProt Q8VHH8 17-169)
T1 sequence (looked up): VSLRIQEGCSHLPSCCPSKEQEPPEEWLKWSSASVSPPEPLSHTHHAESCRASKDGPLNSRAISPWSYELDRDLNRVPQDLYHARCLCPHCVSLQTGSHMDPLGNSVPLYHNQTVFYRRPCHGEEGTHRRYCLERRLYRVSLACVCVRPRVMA

T2: Human IL-25 (made from human (HEK) sources) (human, UniProt Q9H293 33-177)
T2 construct: also called IL-17E
T2 sequence (looked up): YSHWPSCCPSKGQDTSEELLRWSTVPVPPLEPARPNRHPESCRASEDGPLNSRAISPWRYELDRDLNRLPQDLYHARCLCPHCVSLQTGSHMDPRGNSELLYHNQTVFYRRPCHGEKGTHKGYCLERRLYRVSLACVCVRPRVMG

T3: Cyno Monkey IL-25 (HEK) (cynomolgus monkey, UniProt G7P9V9 33-176)
T3 construct: also called Cyno Monkey (HEK)
T3 sequence: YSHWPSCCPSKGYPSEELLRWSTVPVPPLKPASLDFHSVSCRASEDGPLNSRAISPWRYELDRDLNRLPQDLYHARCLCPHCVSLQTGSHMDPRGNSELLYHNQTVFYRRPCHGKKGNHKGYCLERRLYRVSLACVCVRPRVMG


Experiments:
[1] = molecular target: T1, mouse IL-25 (made from mouse (NSO) …); experiment: binding affinity, method not stated; mouse IL-25 made in NSO
[2] = molecular target: T2, Human IL-25 (made from human (HEK) …); experiment: binding affinity, method not stated; human IL-25 made in HEK
[3] = molecular target: T2, Human IL-25 (made from human (HEK) …); experiment: cell-based or functional assay
[4] = molecular target: T1, mouse IL-25 (made from mouse (NSO) …); experiment: cell-based or functional assay
Cyno Monkey IL-25 (HEK) = molecular target: T3, Cyno Monkey IL-25 (HEK); experiment: binding affinity, method not stated; cyno monkey IL-25 made in HEK

Row | Kd [1] | Kd [2] | Potency IC50 in HT29 cell assay [3] | Potency IC50 in HT29 cell assay [4] | Kd (Cyno Monkey IL-25 (HEK)) | Binder
1 | 0.168 nM | 0.128 nM | 0.12 mg/mL | 0.13 mg/mL | 0.17 nM | anti-IL-25 antibody LNR125 (antibody, V domains shown) VH: QVTLKVSGPGILQPSQTLSLTCSFSGFSLNTSGMGVGWIRQPSGKGLEWLAHIWWDDVKRYNPALKSRLTISKDTSGSQVFLKIASVDTADTATYYCARTLPHFFDYWGQGTTLTVSS VL: DIQMTQSPAIMSASPGEKVTISCRASSSVSYMYWYQQKSGSSPKPWIYRTSNLASGVPARFSGSGSGTSYSLTISSMEAEDAATYYCKQYHSYPPTWTFGGGTKLEIKR
2 | 0.096 nM | 0.051 nM | 0.1 mg/mL | 0.78 mg/mL | 0.235 nM | humanized anti-IL-25 antibody LNR125.38 (antibody, V domains shown) VH: QVTLKESGPTLVKPTQTLTLTCTFSGFSLSTSGMGVGWIRQPPGKALEWLAHIWWDDVKRYNPSLKSRLTITKDTSGSQVVLTMTNMDPVDTATYYCARTLPHFHDYWGQGTTLTVSS VL: DIQMTQSPSTLSASVGDRVTITCRASSSVSYMYWYQQKPGKAPKPLIYRTSNLASGVPSRFSGSGSGTEYTLTISSLQPDDFATYYCKQYHSYPPTWTFGGGTKVEIKR
